Reference: US20240400657A1 (MorphoSys, published 2024)
Positions count from the first letter of the chain named.

What was measured:
[1] = target: T1, C5aR expressed on purified human neutrophils (human, UniProt P21730 1-350); assay: FACS on purified human neutrophils, IgG titration
T1 construct: whole, on cells; Used here for all assays on primary human cells (purified neutrophils, granulocytes and monocytes in whole blood, monocyte-derived macrophages); also called human C5aR expressed endogenously; C5aR on human granulocytes, monocytes and macrophages
T1 sequence (looked up): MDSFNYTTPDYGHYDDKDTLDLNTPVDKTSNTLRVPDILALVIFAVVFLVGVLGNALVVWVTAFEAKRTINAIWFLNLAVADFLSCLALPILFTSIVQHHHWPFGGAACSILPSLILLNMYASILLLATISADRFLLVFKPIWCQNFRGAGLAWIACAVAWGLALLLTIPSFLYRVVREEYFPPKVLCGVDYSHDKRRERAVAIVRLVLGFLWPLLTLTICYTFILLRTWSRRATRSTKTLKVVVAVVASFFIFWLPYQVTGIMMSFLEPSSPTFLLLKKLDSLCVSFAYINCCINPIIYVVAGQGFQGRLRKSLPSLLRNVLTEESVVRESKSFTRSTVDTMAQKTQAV
Description: (§1) Neutrophils were purified from EDTA-whole blood samples using a MACSexpress® Neutrophil Isolation Cocktail from Miltenyi Biotec. Briefly, using this kit, cells are isolated using magnetic labeling and negative magnetic separation. […] Measurements were done at the FACS Array device. FACS data were evaluated using FlowJo™, entered into GraphPad® Prism (v4.0) and fitted to the sigmoidal dose-response curve using non-linear regression to calculate the EC50.

Antitrypsin = assay: Protein Panel Profiling (3P), MSD ECL, coated antigen, IgG 100 nM
Description: (§2) 32 different proteins and controls were coated on two 384-well MSD standard plates at a concentration of 1.0 μg/mL at 4° C. over night. The coating solution was discarded and plates were blocked with 50 μL 3% (w/v) BSA in PBS for one hour at RT on a microtiter plate shaker (˜500 rpm) followed by three washing steps with 50 μL washing buffer (PBS with 0.05% (v/v) Tween 20). IgG samples were diluted to 100 nM and 10 nM in assay buffer (PBS with 0.5% (w/v) BSA, 0.05% (v/v) Tween 20). As controls, isotype control antibody MOR03207 (IgG1f_AEASS) and assay buffer were used. Samples and controls were added at 30 μL/well and incubated for three hours at RT on a microtiter plate shaker. The plates were washed three times and 30 μL detection antibody (ECL-labeled anti-human Fab) were added per well and incubated for one hour on a microtiter plate shaker (˜500 rpm). After washing the MSD plate and adding 35 μL/well MSD Read Buffer T with surfactant, electro-chemiluminescence signals were detected using a SECTOR® Imager S600 instrument (Meso Scale Diagnostics).
(§3) For evaluation, binding signals of the antibody sample to a certain protein were divided by the respective binding signals of the reference antibody MOR03207 resulting in a binding ratio (BR). The cumulative binding ratio (CBR) of all proteins except the controls (25 in total) was then calculated: CBR up to 150 indicates an IgG without detectable unspecific binding. Values above 150 indicates an IgG with increased unspecific binding compared to the reference antibody MOR03207.

anti-human Fab (Dianova) = target: T2, anti-human Fab (Dianova); assay: as above
T2 construct: control of the 3P panel; it captures human IgG as such, so a ratio of 1 means a signal equal to that of MOR03207
Description: as §2, §3

Trypsinogen = assay: as above
Description: as §2, §3

[2] = target: T3, Cell surface rec. 2_Fc (h); assay: as above
T3 construct: identity not disclosed
Description: as §2, §3

Myoglobin = assay: as above
Description: as §2, §3

[3] = target: T4, human C5aR_NT-bio peptide (human, biotin tag (position not given)); assay: as above
T4 construct: Chemically synthesized linear peptide (Genscript); also called human C5aR N-terminal peptide; human C5aR peptide
T4 peptide: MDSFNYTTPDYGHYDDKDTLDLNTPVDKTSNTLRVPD

Fibrinogen (b) = Fibrinogen (b) (bovine); assay: as above
Chain of Fibrinogen (b) (bovine) (P02672 20-615, chain 1 of 3): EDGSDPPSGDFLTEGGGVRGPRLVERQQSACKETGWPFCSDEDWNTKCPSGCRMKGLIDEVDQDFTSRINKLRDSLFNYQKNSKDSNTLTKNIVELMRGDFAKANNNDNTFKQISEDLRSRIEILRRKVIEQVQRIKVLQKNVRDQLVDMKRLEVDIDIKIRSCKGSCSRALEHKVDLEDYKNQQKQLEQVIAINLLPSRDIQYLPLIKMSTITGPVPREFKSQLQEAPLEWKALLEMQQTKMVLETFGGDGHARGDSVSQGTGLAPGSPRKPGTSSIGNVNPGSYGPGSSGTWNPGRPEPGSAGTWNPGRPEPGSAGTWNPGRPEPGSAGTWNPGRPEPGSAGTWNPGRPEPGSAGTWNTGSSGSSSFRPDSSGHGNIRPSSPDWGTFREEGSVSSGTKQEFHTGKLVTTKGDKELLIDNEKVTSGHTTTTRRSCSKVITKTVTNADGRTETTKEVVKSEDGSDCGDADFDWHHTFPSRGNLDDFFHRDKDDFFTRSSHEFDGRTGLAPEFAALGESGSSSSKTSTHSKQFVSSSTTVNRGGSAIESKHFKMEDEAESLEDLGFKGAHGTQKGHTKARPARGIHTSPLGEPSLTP
Chain of Fibrinogen (b) (bovine) (P02676 whole entry, chain 2 of 3, further chain): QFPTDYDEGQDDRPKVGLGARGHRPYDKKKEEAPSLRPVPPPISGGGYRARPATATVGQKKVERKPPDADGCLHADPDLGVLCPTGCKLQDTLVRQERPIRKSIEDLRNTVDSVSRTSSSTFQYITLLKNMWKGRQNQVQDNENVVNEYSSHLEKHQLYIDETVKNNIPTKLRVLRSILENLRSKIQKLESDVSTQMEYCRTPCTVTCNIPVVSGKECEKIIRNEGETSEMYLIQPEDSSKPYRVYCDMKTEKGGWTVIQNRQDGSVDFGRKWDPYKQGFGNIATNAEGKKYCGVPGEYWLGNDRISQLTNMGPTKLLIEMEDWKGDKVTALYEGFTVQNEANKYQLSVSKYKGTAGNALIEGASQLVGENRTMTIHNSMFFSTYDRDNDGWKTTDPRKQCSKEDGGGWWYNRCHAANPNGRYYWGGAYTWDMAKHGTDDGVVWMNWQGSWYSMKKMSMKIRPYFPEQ
Chain of Fibrinogen (b) (bovine) (P12799 25-444, chain 3 of 3, further chain): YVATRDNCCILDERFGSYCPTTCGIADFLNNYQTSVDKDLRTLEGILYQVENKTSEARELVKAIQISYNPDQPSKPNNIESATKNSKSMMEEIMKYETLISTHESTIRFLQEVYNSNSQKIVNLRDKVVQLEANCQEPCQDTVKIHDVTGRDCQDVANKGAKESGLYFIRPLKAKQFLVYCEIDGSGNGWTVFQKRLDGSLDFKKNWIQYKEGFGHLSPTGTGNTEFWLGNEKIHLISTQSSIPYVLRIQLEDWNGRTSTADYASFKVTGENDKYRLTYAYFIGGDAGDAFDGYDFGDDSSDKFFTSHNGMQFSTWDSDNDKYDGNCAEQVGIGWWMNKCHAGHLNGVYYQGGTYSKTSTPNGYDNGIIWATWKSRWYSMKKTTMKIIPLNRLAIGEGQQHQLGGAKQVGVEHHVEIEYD
Description: as §2, §3

Amyloglycosidase = assay: as above
Description: as §2, §3

RNase B = assay: as above
Chain of RNase B (P61823 27-150): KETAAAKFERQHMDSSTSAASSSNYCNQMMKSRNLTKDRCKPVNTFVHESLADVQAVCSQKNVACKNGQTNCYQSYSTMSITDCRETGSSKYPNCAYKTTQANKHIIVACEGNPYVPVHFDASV
Description: as §2, §3

RNase A = assay: as above
Chain of RNase A (P61823 27-150): as above
Description: as §2, §3

Lectin = assay: as above
Description: as §2, §3

Protein A = target: T5, Protein A; assay: as above
T5 construct: control of the 3P panel
Description: as §2, §3

Serum albumin (h) = target: T6, Serum albumin (h) (human); assay: as above
T6 construct: '(h)' on the sheet read as human
T6 sequence (P02768 25-609): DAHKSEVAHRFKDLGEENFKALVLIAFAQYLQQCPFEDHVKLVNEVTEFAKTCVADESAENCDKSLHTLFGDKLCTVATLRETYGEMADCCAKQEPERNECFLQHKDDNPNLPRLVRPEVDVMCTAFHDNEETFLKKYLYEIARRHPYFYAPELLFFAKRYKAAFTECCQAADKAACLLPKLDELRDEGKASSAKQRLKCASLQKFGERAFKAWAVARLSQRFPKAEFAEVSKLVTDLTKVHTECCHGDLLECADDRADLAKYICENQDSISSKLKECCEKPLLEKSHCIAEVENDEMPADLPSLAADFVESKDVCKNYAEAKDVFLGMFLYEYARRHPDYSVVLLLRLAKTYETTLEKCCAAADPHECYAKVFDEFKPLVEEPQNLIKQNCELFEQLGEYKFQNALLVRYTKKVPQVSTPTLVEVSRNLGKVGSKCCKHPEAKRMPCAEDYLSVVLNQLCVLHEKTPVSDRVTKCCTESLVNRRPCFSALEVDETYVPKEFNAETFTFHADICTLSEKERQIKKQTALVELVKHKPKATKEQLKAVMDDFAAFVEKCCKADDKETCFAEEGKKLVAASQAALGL
Description: as §2, §3

Fc (h) = target: T7, Fc (h); assay: as above
T7 construct: '(h)' on the sheet read as human
Description: as §2, §3

Trypsin inhibitor = assay: as above
Description: as §2, §3

[4] = target: T8, C5aR expressed on purified cynomolgus neutrophils (cynomolgus monkey (Macaca fascicularis)); assay: FACS on purified cynomolgus neutrophils, IgG titration
T8 construct: Endogenous receptor on neutrophils from whole blood of three animals; also called cynomolgus C5aR expressed endogenously
T8 chain: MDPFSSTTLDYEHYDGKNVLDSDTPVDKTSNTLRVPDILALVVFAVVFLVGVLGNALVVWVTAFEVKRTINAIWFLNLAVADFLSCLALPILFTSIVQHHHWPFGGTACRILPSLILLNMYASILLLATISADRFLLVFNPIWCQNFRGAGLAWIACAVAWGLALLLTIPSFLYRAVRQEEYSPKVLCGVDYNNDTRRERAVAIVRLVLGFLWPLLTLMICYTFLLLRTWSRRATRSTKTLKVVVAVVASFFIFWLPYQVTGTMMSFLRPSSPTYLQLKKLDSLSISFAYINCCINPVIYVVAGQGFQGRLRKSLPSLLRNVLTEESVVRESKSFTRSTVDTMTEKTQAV
Description: as §1

[5] = target: T9, full-length human FPR1 expressed on CHO Flp-In cells (human, UniProt P21462 1-350); assay: FACS, CHO Flp-In cells expressing human FPR1, single IgG concentration
T9 construct: also called fMet-Leu-Phe receptor
T9 chain: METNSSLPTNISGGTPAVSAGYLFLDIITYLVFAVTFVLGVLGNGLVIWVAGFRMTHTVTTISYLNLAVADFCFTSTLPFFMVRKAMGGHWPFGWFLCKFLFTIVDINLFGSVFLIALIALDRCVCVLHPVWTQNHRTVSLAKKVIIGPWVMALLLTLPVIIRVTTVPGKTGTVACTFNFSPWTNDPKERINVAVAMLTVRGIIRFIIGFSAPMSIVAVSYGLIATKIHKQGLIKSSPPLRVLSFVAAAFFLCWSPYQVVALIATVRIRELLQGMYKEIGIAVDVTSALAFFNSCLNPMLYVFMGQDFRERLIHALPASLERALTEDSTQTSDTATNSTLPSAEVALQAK

[6] = target: T10, HIS6-human C5aR (D/K variant)-HV1B1-GAG (human); assay: ELISA on coated VLPs, IgG titration (N = 2)
T10 construct: the VLPs were coated for ELISA; also called huC5aR (D/K); human C5aR D/K variant on VLPs

[7] = target: T11, HIS6-human C5aR (N/N variant)-HV1B1-GAG (human); assay: ELISA on coated VLPs, IgG titration (N = 2)
T11 construct: also called huC5aR (N/N); human C5aR N/N variant on VLPs

B1: MAB #2 (antibody, human IgG1, lambda)
heavy: EVQLVESGGGLVKPGGSLRLSCAASGFTFSSYAMHWVRQAPGKGLEWVGRIKSVAQGGTTDYAAHVKGRFTISRDDSKNTLYLQMNSLKTEDTAVYYCARVSHSTFDVWGQGTLVTVSSASTKGPSVFPLAPSSKSTSGGTAALGCLVKDYFPEPVTVSWNSGALTSGVHTFPAVLQSSGLYSLSSVVTVPSSSLGTQTYICNVNHKPSNTKVDKRVEPKSCDKTHTCPPCPAPEAEGAPSVFLFPPKPKDTLMISRTPEVTCVVVDVSHEDPEVKFNWYVDGVEVHNAKTKPREEQYNSTYRVVSVLTVLHQDWLNGKEYKCKVSNKALPSSIEKTISKAKGQPREPQVYTLPPSREEMTKNQVSLTCLVKGFYPSDIAVEWESNGQPENNYKTTPPVLDSDGSFFLYSKLTVDKSRWQQGNVFSCSVMHEALHNHYTQKSLSLSPGK
light: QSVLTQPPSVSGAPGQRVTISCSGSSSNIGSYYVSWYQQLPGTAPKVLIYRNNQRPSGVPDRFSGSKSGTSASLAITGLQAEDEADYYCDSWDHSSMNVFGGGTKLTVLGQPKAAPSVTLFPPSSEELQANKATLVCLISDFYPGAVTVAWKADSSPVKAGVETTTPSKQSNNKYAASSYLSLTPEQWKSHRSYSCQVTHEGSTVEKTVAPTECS
notes: lambda 1 light chain
[1]
  EC50: 5.4 nM
Antitrypsin
  binding ratio (signal / signal of MOR03207): 2
anti-human Fab (Dianova)
  binding ratio (signal / signal of MOR03207): 1
Trypsinogen
  binding ratio (signal / signal of MOR03207): 2
[2]
  binding ratio (signal / signal of MOR03207): 2
Myoglobin
  binding ratio (signal / signal of MOR03207): 2
[3]
  binding ratio (signal / signal of MOR03207): 49
Fibrinogen (b)
  binding ratio (signal / signal of MOR03207): 2
Amyloglycosidase
  binding ratio (signal / signal of MOR03207): 2
RNase B
  binding ratio (signal / signal of MOR03207): 2
RNase A
  binding ratio (signal / signal of MOR03207): 6
Lectin
  binding ratio (signal / signal of MOR03207): 2
Protein A
  binding ratio (signal / signal of MOR03207): 1
Serum albumin (h)
  binding ratio (signal / signal of MOR03207): 2
Fc (h)
  binding ratio (signal / signal of MOR03207): 3
Trypsin inhibitor
  binding ratio (signal / signal of MOR03207): 7
[4]
  EC50: 3.8 nM
[5]
  binding result: no binding (tested: 300 nM)
[6]
  EC50: 0.5 nM
[7]
  EC50: 0.5 nM

B2: MAB #1 (antibody, human IgG1, lambda)
heavy: B1 heavy with V54K, H103F
light: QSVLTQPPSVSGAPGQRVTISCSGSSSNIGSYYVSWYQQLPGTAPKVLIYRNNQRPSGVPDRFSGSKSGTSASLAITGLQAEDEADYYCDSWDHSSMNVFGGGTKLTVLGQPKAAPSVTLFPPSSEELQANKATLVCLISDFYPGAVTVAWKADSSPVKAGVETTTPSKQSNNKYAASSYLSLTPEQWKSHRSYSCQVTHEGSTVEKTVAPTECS
notes: lambda 1 light chain, VH3-15 framework
[1]
  EC50: 6 nM
Antitrypsin
  binding ratio (signal / signal of MOR03207): 2
anti-human Fab (Dianova)
  binding ratio (signal / signal of MOR03207): 1
Trypsinogen
  binding ratio (signal / signal of MOR03207): 2
[2]
  binding ratio (signal / signal of MOR03207): 2
Myoglobin
  binding ratio (signal / signal of MOR03207): 2
[3]
  binding ratio (signal / signal of MOR03207): 84
Fibrinogen (b)
  binding ratio (signal / signal of MOR03207): 2
Amyloglycosidase
  binding ratio (signal / signal of MOR03207): 3
RNase B
  binding ratio (signal / signal of MOR03207): 2
RNase A
  binding ratio (signal / signal of MOR03207): 4
Lectin
  binding ratio (signal / signal of MOR03207): 2
Protein A
  binding ratio (signal / signal of MOR03207): 1
Serum albumin (h)
  binding ratio (signal / signal of MOR03207): 2
Fc (h)
  binding ratio (signal / signal of MOR03207): 2
Trypsin inhibitor
  binding ratio (signal / signal of MOR03207): 5
[4]
  EC50: 4.5 nM
[5]
  binding result: no binding (tested: 300 nM)
[6]
  EC50: 0.5 nM
[7]
  EC50: 0.5 nM
